Assays:
Assay in all cases: purified protein
Conditions in all cases: phosphate-buffered saline 50 mM, pH 7.0, 37 °C
[1] = test system: CO/N=C(\C(=O)N[C@@H]1C(=O)N2C(C(=O)O)=C(CSc3nc(=O)c(=O)[nH]n3C)CS[C@H]12)c1csc(N)n1
[2] = test system: CC(=O)OCC1=C(C(=O)O)N2C(=O)[C@@H](NC(=O)Cc3cccs3)[C@H]2SC1
[3] = test system: C[C@@H](O)[C@H]1C(=O)N2C(C(=O)O)=C(S[C@@H]3CN[C@H](C(=O)N(C)C)C3)[C@H](C)[C@H]12
[4] = test system: CO/N=C(\C(=O)N[C@@H]1C(=O)N2C(C(=O)O)=C(COC(C)=O)CS[C@H]12)c1csc(N)n1
[5] = test system: Cc1onc(-c2ccccc2)c1C(=O)N[C@@H]1C(=O)N2[C@@H]1SC(C)(C)[C@@H]2C(=O)O
[6] = test system: Cc1nnc(SCC2=C(C(=O)O)N3C(=O)[C@@H](NC(=O)Cn4cnnn4)[C@H]3SC2)s1
[7] = test system: CCN1CCN(C(=O)N[C@@H](C(=O)N[C@@H]2C(=O)N3C(C(=O)O)=C(CSc4nnnn4C)CS[C@H]23)c2ccc(O)cc2)C(=O)C1=O
[8] = test system: CO/N=C(\C(=O)N[C@@H]1C(=O)N2C(C(=O)[O-])=C(C[N+]3(C)CCCC3)CS[C@H]12)c1csc(N)n1
[9] = test system: CC1=C(C(=O)O)N2C(=O)[C@@H](NC(=O)[C@H](N)C3=CCC=CC3)[C@H]2SC1
[10] = test system: CC(C)(O/N=C(\C(=O)N[C@@H]1C(=O)N2C(C(=O)[O-])=C(C[n+]3ccccc3)CS[C@H]12)c1csc(N)n1)C(=O)O
[11] = test system: C[C@H]1[C@H](NC(=O)/C(=N\OC(C)(C)C(=O)O)c2csc(N)n2)C(=O)N1S(=O)(=O)O

PAD-1 (Paramesorhizobium deserti)
Km [1]: 90.84 µM
kcat [1]: 16.3 s⁻¹
kcat/Km [1]: 179000 M⁻¹ s⁻¹
Km [2]: 91.59 µM
kcat [2]: 15.2 s⁻¹
kcat/Km [2]: 166000 M⁻¹ s⁻¹
Km [3]: 389.69 µM
kcat [3]: 24.2 s⁻¹
kcat/Km [3]: 62200 M⁻¹ s⁻¹
Km [4]: 137.08 µM
kcat [4]: 20.1 s⁻¹
kcat/Km [4]: 146000 M⁻¹ s⁻¹
Km [5]: 383.96 µM
kcat [5]: 58.7 s⁻¹
kcat/Km [5]: 153000 M⁻¹ s⁻¹
Km [6]: 89.16 µM
kcat [6]: 22.6 s⁻¹
kcat/Km [6]: 253000 M⁻¹ s⁻¹
Km [7]: 47.80 µM
kcat [7]: 15.1 s⁻¹
kcat/Km [7]: 315000 M⁻¹ s⁻¹
Km [8]: 108.40 µM
kcat [8]: 10.4 s⁻¹
kcat/Km [8]: 95900 M⁻¹ s⁻¹
Km [9]: 347.9 µM
kcat [9]: 31.8 s⁻¹
kcat/Km [9]: 91300 M⁻¹ s⁻¹
Km [10]: 110.04 µM
kcat [10]: 12.1 s⁻¹
kcat/Km [10]: 110000 M⁻¹ s⁻¹
Km [11]: 276.08 µM
kcat [11]: 39 s⁻¹
kcat/Km [11]: 141000 M⁻¹ s⁻¹
